Experimental data reported in publication PMC4928148 (Biochemistry, 2016).

Target: the molecule itself
Experiment: crystal structure

B1: secreted (extracellular) catalase-peroxidase from Magnaporthe grisea, wild type (enzyme)
chain: QGCPFAKRDGTVDSSLPQKRADAPETTTFGRCAVKSNQAGGGTRSHDWWPCQLRLDVLRQFQPSQNPLGGDFDYAEAFQSLDYEAVKKDIAALMTESQDWWPADFGNYGGLFVRMAWHSAGTYRAMDGRGGGGMGQQRFAPLNSWPDNQNLDKARRLIWPIKQKYGNKISWADLMLLTGNVALENMGFKTLGFGGGRADTWQSDEAVYWGAETTFVPQGNDVRYNNSVDINARADKLEKPLAATHMGLIYVNPEGPNGTPDPAASAKDIREAFGRMGMNDTETVALIAGGHAFGKTHGAVKGSNIGPAPEAADLGMQGLGWHNSVGDGNGPNQMTSGLEVIWTKTPTKWSNGYLESLINNNWTLVESPAGAHQWEAVNGTVDYPDPFDKTKFRKATMLTSDLALINDPEYLKISQRWLEHPEELADAFAKAWFKLLHRDLGPTTRYLGPEVPKESFIWQDPLPAREGDLIDDADVDKLKAAILSTDGLDVSKLASTAMACATTYRNSDKRGGCNGARIALEPQRNWVSNNPTQLSAVLDALKKVQSDFNGSNGNKKVSLADLIVLGGTAAVEKAAKDAGVDIKVPFSAGRVDATQEQTDVTQFSYLEPQADGFRNYGRGTARARTEEIMVDKASQLTLTPPELTVLVGGMRALGANYDGSDVGVFTANKGKLTPDFFVNLVDMNIAWTASGADGESWVGTDRKSRSEKYKGSRADLVFGSHAELRAIAEVYAENGNQEKFVKDFVAAWTKVMNLDRFDLKVKK
- stoichiometry N: 2
